Experimental data: the DeepSol protein solubility set

Assay: soluble on expression in E. coli; label from the status in PepcDB or PDB records

Row | Sequence | soluble on expression in E. coli
1 | MNGFDGLQEEESSDLKSIQKELAILKLKLSEQESLFNSITENTLAGYWIWDIPLNTMFISAHLKSMLGYADHELENSPETINMLMHPSDLPATYALLSKHVESDGKVPFEIEVRYKHKNGSIVWVICSGNIVTRDENGKPSKMIGCHLDNTELKKAQGVQKYTEELERKNVEMEQFAYVASHDLQEPLNTIQGFIALLSAKLEDAPDPDVTQYLHYINQSTLRMTNLIKGLLEYSRIGKNVVMSKIDCNQVITDVLMDLHIQVEETQADIEVTPLPFVMGYDIELRILFQNLISNALKFSVRRPVIKIYSVVEGGYFKFSVADNGIGIDPQFREKIFKLYQQLHPKSTYEGNGLGLAQCFKIVTELHSGSIWVESNEKEGSIFHFTIPYNA | not soluble
2 | MGSDKIHHHHHHMHTGPTVFKQLLQFLPRYEFNLCVRRHRGEYREKKFSTYDQFLCLAYAQMAGRESLRDIETCLNSHQEKLYHIGFRGDVSRTTLADANERRDWRIFQDFGHVLIGIAQQLYQADAISVELTQPLYAFDSTTIDLCLTLFPWAEFRKTKAAVKMHTLIDLRGPIPTWVTITTGKVHDVRMLDHLPVAKDAIYTMDRGYVDFARLHSIHKQGAFFVVRAKDNLKCQRLYSHPKDKESGVRADQIITLVTQKSKKGYPEKLRRVSYVDKERNKRLVFLTNNFEIPAATVAAIYKQRWQVELFFKWIKQHLRIKSFIGTSVNAVKSQIWVALCIYLLVAITKKKLGVPCSLYTFLQILEVNLFEKKPISSLVAEALKRNADYPERNQLNLFNY | not soluble
3 | VEYSKDRLEMEIVMAAERLDITEECIRFSSHNKFFIEELNNSSSGSGRKLNFLLQEQLREANTIASKSQNADISQKVVHIKEELEKVREQLQNIE | not soluble
4 | MGSDKIHHHHHHMYLESIELYSNITKAAAHLFISQPYLSKVIKQLENELEIKLIQSQGHQTFLTYAGQRYLFYLKEIDMIERQMAKELYLIRSDKKGEITLGINSGLASSILANVLPKFNLEHPEISVKLLENNQNISEQLVASGDIDLAVGMAPILYKDGIASTTIYRDELFLMIPTTSQLYNAEKRGQIIPFEYPISVLDNEPLILTPLEYGIGKTIAQFYELHHMSLNQMITTSTVPTAASLSLSGMGATFVPQTLIHRYLDKECNVYHFHKNKLFSEYIMIYKKDVELSGIALLLYKAFLTK | not soluble
5 | MTFSDPMDPSIPIFQHHEEEEAGPSTTIKAEEEDGPCCLVCGRVANTGHHYGVTACLGCKTFFRRVVLQKNSPKCKYKNHCRLEKSVNAKRLCRSCRYQKCLEVGMTEDALHPCRDVIGRRVRNNSSDSSPISSPPSIPTPLSICKLMNLSEGDHKLLQTITDMDTDIRTRTAHILGEPANGNEQIHFYSPTPDYTNVIVNHGIGPSLKVDILLLREWVDRIPGFRELSERFQQHLMHRFCLRYTVIEHGLFTAQMPYHKNVWFLSDRTCLVSEFENLPQEIKKHLTPKVINEQQLLASFTEMLIHEVADPLRRLKPDSVEVATVKTLMLLKPTCLREIDGDYLSTETDIKSVNDVRNRVINGLYSHYIKNGMDPEQLPIRVSEILNLTGGVEQCAARALEEMHPTRVFNLSSFDPYSSNVIFGYYRDV | not soluble
6 | AMKNYYSSNPTFYLGIDCIIFGFNEGEISLLLLKRNFEPAMGEWSLMGGFVQKDESVDDAAKRVLAELTGLENVYMEQVGAFGAIDRDPGERVVSIAYYALININEYDRELVQKHNAYWVNINELPALIFDHPEMVDKAREMMKQKASVEPIGFNLLPKLFTLSQLQSLYEAIYGEPMDKRNFRKRVAEMDFIEKTDKIDKLGSKRGAALYKFNGKAYRKDPKFKL | soluble
7 | QVTLKESGPTLVKPTQTLTLTCTFSGFSLRTSRVGVSWIRQPPGKALEWLAHIYWDDDKRYNPSLKSRLTISKDTSKNQVVLTMTNMDPVDTATYYCARRGFYGRKYEVNHFDYWGQGTTVTVSSASTKGPSVFPLAPSSKSTSGGTAALGCLVKDYFPEPVTVSWNSGALTSGVHTFPAVLQSSGLYSLSSVVTVPSSSLGTQTYICNVNHKPSNTKVDKKVEPKSCG | soluble
8 | MRIGIVGAGLGGLLAGALLSKNHEVVVFEKLPFLGGRFTNLKYEGFQLTTGALHMIPHGNDGYLAQALRKAGANVKIINSKPDGTFLINGKEYLYKELFSLLGFKEKAKAFKLATKLKLGKVDKNISFGEFLEEIDLALKVGNAFTGWALSLTAYETPMSEIIEIAKNYHKFGGPGIPIGGCKAVTDELSRIIKKNNGKIIKEYEVKRIEIDEKAYIDDYEFDVVISNISPIETQKICNIKFLKSKPKPSKGIKISIATKEGIIKHGGVLFTPECERINGLNQVTNVDKSLAPEGWHLVMTHQTQLTNNVKKEIDLGLEDIENLFKGKDYKILHIQSYRDDWPVNHASNGTDIDNIVNDRFYLVGDGAKGRGGIEVEGIAMGVLKVVNYINSLLEHHHHHH | soluble
9 | MGSDKIHHHHHHMLRAELHVHSSFSDGRDGVRKILEAAVEKKLEVIAITDHDTVQGSLEAIDIVKEEHLPLKVLPGCEVTASTGHVLVYGITKDIEPRMSVEETCKIARELGGVCFLAHPFDFIRKGSVRLKDFKMVDGIETFNAKSYFNFLAKRYAKKLSKPEIAGSDAHSARAVGLAINYLPDEFDLLNALFHARFDGRRVSIRERLAFLRFRLNQRL | not soluble
10 | MNRIEHYHDWLRDAHAMEKQAESMLESMASRIDNYPELRARIEQHLSETKNQIVQLETILDRNDISRSVIKDSMSKMAALGQSIGGIFPSDEIVKGSIGGYVFEQFEITCYTSLLAAAKNAGDTVSIPIIEAILNEEKQMADWLIQHIPQTTEKFLIRSETDGVEAKK | not soluble
11 | GPGSMWKCYPLRCPAATGVFGCFKRLQDGYSAWCAAVSNQETASAKTSSRGSGAENTENLQLPIHTNPNACPRSVLVVPAGDIKDALRRQKRYDVVADVVMLDLTRGVFGGSDRSGGASEARDRLLRFLRESVRGDHMEGCSDDGEWKTQSGEGTVGQIFNGGRARWVVRVNSPEFDAARGFLDMELVGVLGDLIEGVVLPSVTANTYELVQEFIHPSHKLWAAFNTPLSVLQASAVCAQGHYRYAIVDREELAYEMQYPSVNSEKRSGSLNFSEDVEATQLKHVRSLPALHSACQVMTAAKAHGMYLFDGGFSDVSDSIGFRHDMQRCRAFGFDGRVVLRPSQIAACHEAFVPTSEEVEWAKAVQRTHCMDQYNVNGDNATSVGGDATCRRQRAALILERHAAVQWYNRNPQDDGMDMQRKGAGGNVPQGSVV | not soluble
12 | QGHMRVEVFPVEGLPLIKEGDDLAELISSRVRFEDGDVLVVCSTVISKAEGRIRRLEEFNPSERAKEIAARIGKPAEFVQAVLEESEEVLLDFPFLLVKAKFGNVCVNAGIDASNVEEGSLLLPPLDPDGSAEKLRRRILELTGKRVGVIITDTNGRCFRRGVVGFAIGISGVKAMKDWIGRKDLYGRELEVTVECVADEIAAFANLLMGEGGDGIPAVVVRGLNVAGEGSMEEIYRSEEEDVIRRCLKRCLGS | soluble
13 | MGSDKIHHHHHHMKIHQLRALVAVTTAGSIKAAARTMHVTQPAISKAIQELENEFGVPLLERKPWGVVPTPEGDALLGRAQAVVRELERANEDMAHMKGLRDGRLVIGFTPIVAVTGFAEAYAAFRRHWPNVECELRELTFNLLTEQLRNRTLDLAFVAVTGPLSESVDIKAIRTFDTAFVTRENGRFAGATSLDALRDAEWIHADASDSFPTYIRDLHAHAGLPPPRCITRCTSYALFYSLLMTNDAIFSWTRLSLAETVFGQKLTPLPLPMSPPPLQLYRLTPPGLQLTRPASDFLAHVETAFASNQLTGDVQR | not soluble
14 | LDRQTERLQQGEVDVRFNMVSRMLDHPDLAERWPHLQGKLDNLSQEYELIRFWIDSDDPRYHYGRFSEPVQRLIADGAGRYELELPEHRYALTARVGVLPAREGRPRLTYVTAIDSAAFHEARTSTLKW | not soluble
15 | MNKLLTSKSEIIERKIRYDSTTVEHTCLLLEKQLRSIVLFHEVQYSFTMNTHDSSLTIPKGSYTIAYYWEDRPYNLYIWRDKDGMYVGSYFNVVKNTQITDELVSFEDLIIDILVLPSGEYFILDEDELPESLEEFEDGYVNEALHVLEEIIQKTLPQMIVETERVRLN | not soluble
16 | MEAESAPQAPMSGGRVLKMVTEMGSATVGGISPALSANAAKSFLEATDKEKKTLQGLNDRLGNYIDRVKKLEEQNRKLVADLDELRGKWGKDTSEIKIKYSESLSTARKDIDDAARRKAEVDVKVARHRDDLAEYRSRYEDIQQRRESDREKISQWTNAIADAQSEVEMLRARFKQLTDEEKRVTADNSRIWEELQKARSDLDDETIGRIDFQNQVQTLMEELEFLRRVHEQEVKELQALLAQAPADTREFFKNELALAIRDIKDEYDIIAKQGKQDMESWYKLKVSEVQGSANRANMESTYQRDEVKRMRDNIGDLRGKLGDLENKNSLLEKEVQNLNYQLTDDQRQYEAALNDRDATLRRMREECQTLVAELQALLDTKQMLDAEIAIYRKMLEGEETRVGLTQMVEQAVKTHSLQQQENTDSTRSVRGEVSTKTTFQRSAKGNVTISECDPNGKFIKLENSHRNKDENVGEHKIRRKLDGRREIVYSIPANVVIKPGKNLTIYARDQGGINNPPESLVFDGENTWGIGANVVTSLVNKDGEERATHTQKTIQSGQ | not soluble
17 | DMPAEIVNLIGKMRFHTVYGQNLLQHSREVAMLAGLMAAELKLDAKQAKRAGLLHDIGLVLPETEMPHALAGMEFLKKFNMSPVVLNAIGAHHGEVEKASPIADLVDAANIVSLSRPGARGAVTAEGNVKRLESLEEIARTFPGVIKTYALQAGREIRVIVEGDNVSD | not soluble
18 | MQHKLIAFIGGGNMAQAIILGLLKQGYPAEQIIVNDPNEEKRAFFANLDVATSENNVGSAIKAEVVLLAVKPQMMAEVCSPLSAVDFSDKLLISIAAGISTERLNALIPSVKSIVRVMPNTPALVGEGMAGLFAPKNTSENYRTFAQDLLGAVGRTVWVNDETQMHAVTAASGSSPAYFFLMLEAMQKALIKMNIDEKTARELVQQSMLGAAKMVTENPQIALSTLRENVTSKGGTTAAALAVFDAQHFNQTIEQAMQACLSRSQEMETLF | soluble
19 | MEIIHLSEIDSTNDYAKELAKEGKRNFIVLADKQNNGKGRWGRVWYSDEGGLYFSMVLDSKLYNPKVINLLVPICIIEVLKNYVDKELGLKFPNDIMVKVNDNYKKLGGILTELTDDYMIIGIGINVNNQIRNEIREIAISLKEITGKELDKVEILSNFLKTFESYLEKLKNKEIDDYEILKKYKKYSITIGKQVKILLSNNEIITGKVYDIDFDGIVLGTEKGIERIPSGICIHVR | soluble
20 | MPSFLEISPDKLNRLIGTPGAPRIIDVRTDEDFALDPRLVPGSIRRDHAEVASWADSIDADAVVVVCHRGAKLSHGVAAYLRHAGIEAESLAGGFEAWAAAGPAVPEAKLSRRDAQGRTVWVTRARPKIDRIACPWLIRRFIDPNAVFLFVPAPEVVAVGERFGAAPFDIEDVFWSHRGELCTFDVMVEEFGLASEPLLRLAQIVRAADTARLDLAPEASGLLAASLGLSRMYSDDLEQLEAGMLLYDAFFRWCRDATEETHNWPAPKKRALEHHHHHH | soluble
21 | MMKNPNDIGFIHDISSLDSLRQKAVKEGKDGEQEALHAAARQFESIFTSMMLKSMREANEGFESNIMNSQNEKFYRQMLDEQMASELSANGSMGLADMIVAQLTAGQGNDKSETAMRDAANSAVEYRRVDPKKAREIEKRLIESGELSRTSHTPAKFDSPESFVNSMKPYAEKAAKALGVEPSLLLAQAALETGWGQKVVQNARGSSNNLFNIKADRSWQGDKVTTQTLEFHDNTPVKETAAFRSYSNYQDSFNDYVRFLNDNPRYETALQQRGDSESFIRGIHRAGYATDPTYADKVLQVKQKIESM | not soluble
